The nanobody polyreactivity screen of Harvey et al. (2022)

Test: yeast display, Sf9 membrane polyspecificity reagent, FACS + sequencing; frameworks hold sequencing errors
Outline: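 Synthetic nanobody libraries on Saccharomyces cerevisiae BJ5465 were galactose-induced for 36–48 hours, stained 1 hour at 4 °C with 10% biotinylated, detergent-solubilized Sf9 membrane reagent and enriched on streptavidin microbeads. FACS then separated cells into low and high (top ~1%) gates by anti-HA (expression) and streptavidin (reagent binding) fluorescence. Genes were colony-PCR amplified, MiSeq 2 × 250 sequenced and CDR-length filtered. A clone's polyreactivity label is that of its gate of origin.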
With “QVQLVESGGGLVQAGGSLRLSCDASGRIFYANAMGWYRQAPGKERELVAGISSGGITNYADSVKGRFTISRDNAKNTVYLQMNSLKPEDTAVYYCAARRWSTGGYGQFDYWGQGTQVTVSS” the “polyreactivity (PSR sort gate)” value was “low polyreactivity”.
For “QVQLVESGGGLVQAGGSLRLSCDASGRILTSNAMGWYRQPPGKERELVAAISWSGGSTYYADSVKGRFTISRDNAKNTVYLQMNSLKPEDTAVYYCAAPFTTTFDYWGQGTQVTVSS”, the “polyreactivity (PSR sort gate)” value was “low polyreactivity”.
In the case of “QVQLVESGGGLVQAGGSLRLSCDASGRISGSYVMGWYRQAPRKERELVAGISGRGGSTYYADSVKGRFTISRDNAKNTVDLQMNSLKPEDTAVYYCAVVDRTSKGNSYYWGQGTQVTVSS”, the “polyreactivity (PSR sort gate)” value was “high polyreactivity”.
In the case of “QVQLVESGGGLVQAGGSLRLSCDASGRTFGRNAMGWYRQAPGERELGAVISRGGSTYYADSVKGRFTISRDNAKNTVYLQRNSLKPEDTAVYYCNADTVYTRTAPYDYWGQGTQVTVSS”, the “polyreactivity (PSR sort gate)” value was “low polyreactivity”.
With “QVQLVESGGGLVQAGGSLRLSCDASGRTFPDYAIGWYIQAPGKESELVAAISGSGGSTYYADSVKGRFTISRDNAKNTVYLQMNSLKPEDTAVYYCAAEAETLLWYWFPSAVDYWGQGTQVTVSS” the “polyreactivity (PSR sort gate)” value was “high polyreactivity”.
In the case of “QVQLVESGGGLVQAGGSLRLSCDASGRTFQYYAMGWYRQAPGKVRELVAGISSCGGSTYYADSVKGRFTISRDNAKNTVDLQMNSLKPEDTAVYYCNKARYFTGQRYDYWGQGTQVTVSS”, the “polyreactivity (PSR sort gate)” value was “high polyreactivity”.
For “QVQLVESGGGLVQAGGSLRLSCDASGRTFSSNAMGWYRQAHGKERELVAAISFRGGRTFYADSVKGRFTISRDNAKNTVYLQMNSLKPEDTAVYYCNAVPETRTYDYWGQGTQVTVSS”, the “polyreactivity (PSR sort gate)” value was “high polyreactivity”.
For “QVQLVESGGGLVQAGGSLRLSCDASGSIFAPNSMGWYRQAPGKERELVAAITSSGCRTYYADSVKGRFTISRDNAMNTFYLQMNSLKPVDSAVYYWIAGFYVRRDYDYWGQGTQVTVSS”, the “polyreactivity (PSR sort gate)” value was “low polyreactivity”.
In the case of “QVQLVESGGGLVQAGGSLRLSCDASGSIFILYAMGWYRQAPGKERELVAGITLSTGTTSYADSVKGRFTISRDNAKNTVYLQMNSLKPVDTAVYYCNAVPSQHDEFDYWGQGTQVTVSS”, the “polyreactivity (PSR sort gate)” value was “low polyreactivity”.
With “QVQLVESGGGLVQAGGSLRLSCDASGSIFPHNAMGWYRQAPGKERELVAAISVSGGSKYYADSVKGRFTISRDNAKNTVYLQMNSLKPEDTAVYYCAAYAYGGRINGYRTYRYNYWGQGTQVTVSS” the “polyreactivity (PSR sort gate)” value was “high polyreactivity”.
With “QVQLVESGGGLVQAGGSLRLSCDASGSIFPYNAMGWFRQAPGKEWELVAAISKRGGSTYYADSVKGRFTISRDNAKNTVYLQMNSLKPEDSAVYYCAARYPPYRSWYSYDSWGQGTQVTVSS” the “polyreactivity (PSR sort gate)” value was “low polyreactivity”.
With “QVQLVESGGGLVQAGGSLRLSCDASGSIFSIYAMGWYRQAPGKERELVAAISSGGSTYYADSVKGRFTISRDNAKNTVYLQMNSLKPEDTAVYYCAADAAYYSGYDYWGQGTQVTVSS” the “polyreactivity (PSR sort gate)” value was “low polyreactivity”.
In the case of “QVQLVESGGGLVQAGGSLRLSCDASGSIFTPYAMGWYRQAPGKERELVAAINWNGGRTYYADSVKGRFTISRDNAKNRVYLQMNCLKPEDTAVYYCFLYYWANYPYNYWGQGTQVNVSS”, the “polyreactivity (PSR sort gate)” value was “low polyreactivity”.
For “QVQLVESGGGLVQAGGSLRLSCDASGSIFYDNAKGWYRQAPGKERELVATIRGGGNTYYADSVKGRFTISRDNAKNTVYLQMNSLKPEDTAVNYCAKQSDFPVVPLVYGVYGYDYWGQGTQVTVSS”, the “polyreactivity (PSR sort gate)” value was “low polyreactivity”.
For “QVQLVESGGGLVQAGGSLRLSCDASGSIFYGYAMGWYRQAPGKERELVASITGSGGSTSYADSVKGRFTISRDNAKKTVYLQMNSLKPEDTAVYYCNTVLLQLYKLASGFDYWGQGTQVTVSS”, the “polyreactivity (PSR sort gate)” value was “high polyreactivity”.
With “QVQLVESGGGLVQAGGSLRLSCDASGSIIGFYAMVWYRQAPGKERELVASISSSGDSTYYADSVKGRFTFSRDIAKNTVYLQMNSLIPEDTAVYYCAAVVYDIYGYEFDYWGQGTQLTVSS” the “polyreactivity (PSR sort gate)” value was “low polyreactivity”.
In the case of “QVQLVESGGGLVQAGGSLRLSCDASGSILPGYAMGWYRQEPGKEMELVAAISYRGTSTYYADSVKGRFTISRDNAKNTFYLQMNSLKPEDTAVYYCAAGGSWFRYPPSMDYWGQGTQVTVSS”, the “polyreactivity (PSR sort gate)” value was “high polyreactivity”.
With “QVQLVESGGGLVQAGGSLRLSCDASGSTFGTYAMGWYRQAPGKERELVATITYRGGSTNYADSVKGRFTISRDNAKNTVYLQMISLKPEDTAVYYCAADYFSQLAGIFDYWGLGTQVTVSS” the “polyreactivity (PSR sort gate)” value was “low polyreactivity”.
In the case of “QVQLVESGGGLVQAGGSLRLSCDASGSTFRSYAMGWYRQAHGKERELVASISGRGGSTYYADSVKGRFTISRDNAKNTVYLQMNSLKPEDTAVYYCAKRYRVSYYPYADPYGYWGQGTQVTVSS”, the “polyreactivity (PSR sort gate)” value was “low polyreactivity”.
In the case of “QVQLVESGGGLVQAGGSLRLSCDASGSTFSYYAMGWYRQAPGKERDLVAAISSSGVRTYYADSVKGRFTISRDNAKNTVYLQMNSQKPEDTAVYYCAAGSRRGWLYRNRLWADYDYWGQGTQVTVSS”, the “polyreactivity (PSR sort gate)” value was “high polyreactivity”.
In the case of “QVQLVESGGGLVQAGGSLRLSCDASGSTFVHYAMGWYRQAPGKERQLVAAISSSGDSTYYADSVKGRFTISRDNAKNTVYLKMNSLKPEDTAVYYCAVRSRTPRAYYYWGQGTQVTVSS”, the “polyreactivity (PSR sort gate)” value was “low polyreactivity”.
In the case of “QVQLVESGGGLVQAGGSLRLSCDASGSTRIYAMGWYTQAPGKERELVAAISWTGGRTYYADSVKGRFTISRDNAKYTVYLQMNSLKPEDTAVYYCAAKGSGRDYWGQGTLVTVSS”, the “polyreactivity (PSR sort gate)” value was “high polyreactivity”.
For “QVQLVESGGGLVQAGGSLRLSCDASGSTSYLYAMGCYRQAPGKARELVAAIPWRSVRTSYADSVKGRFTFSRDNAKNTVYLQMNSLKPEDTAVYYCNAVGYTRGRSTYDYWGQGTQVTVSS”, the “polyreactivity (PSR sort gate)” value was “high polyreactivity”.
For “QVQLVESGGGLVQAGGSLRLSCDASGYTFRRYAMGWYIQAPGKEREMVAAITNSGGSTYYADSVKGRFTISRDNAKNTVYLQMNSLKPEDTAVYYCVALRSAGAYDYWGQGTQVTVSS”, the “polyreactivity (PSR sort gate)” value was “low polyreactivity”.
In the case of “QVQLVESGGGLVQAGGSLRLSCDASVSIFQPYAMGWYRQAPGKERELVAAISSSGGSTTYADSVKGRFTISRDNAKNTVYLQMKSLKPEDTAVYYCAADSADDMGYWGQGTQVTVSS”, the “polyreactivity (PSR sort gate)” value was “low polyreactivity”.
In the case of “QVQLVESGGGLVQAGGSLRLSCDCSGRIFKRYDMGWYRQAPGKERELVAAITGTGGSTYYADSVKGRFTISRDNAKNTVYLQMNSLKPEDTAVYYCAARLYNTYSGFAFGYWGQGTQVTVSS”, the “polyreactivity (PSR sort gate)” value was “high polyreactivity”.
For “QVQLVESGGGLVQAGGSLRLSCDDSGGIFGFYSMGWYRQAPGKERELVAAISGDGGSTYYADSVKGRFTISRDNATNTVYLQMNSLKPEDTAVYYCTAAFFTEYYQGDYWGQGTQVTVSS”, the “polyreactivity (PSR sort gate)” value was “low polyreactivity”.
For “QVQLVESGGGLVQAGGSLRLSCDDSGSTFVINDMGWYRQAPGKERELVAAITWGSGSTSYADSVKGRCTISRDNAKNTVYGQMISLKPEDTEVYYCAADVYLGLFGYYAEYNDYWGQGTQVTVSS”, the “polyreactivity (PSR sort gate)” value was “low polyreactivity”.
For “QVQLVESGGGLVQAGGSLRLSCGASGFTFQNYAMGWYRQARGKERELVAAIDSRGGRTYYADSVKGRFTISRDNAKNTVYLQMNSLKPEDTSVYYCAVAENKRCGAVGYYYWGQGTQVTVSS”, the “polyreactivity (PSR sort gate)” value was “low polyreactivity”.
For “QVQLVESGGGLVQAGGSLRLSCGASGGIFIFYAMGWYRHAPGKERELVAAISNVSSTNYADSVKGRFTISRDNAKHTVYLEMNSLKPEDTAVYYCNAVGVPSEYYSWGQGTQVTVSS”, the “polyreactivity (PSR sort gate)” value was “low polyreactivity”.
In the case of “QVQLVESGGGLVQAGGSLRLSCGASGGTFVSNAMGWYRQAPGKERELVAAITSGCNTTYADSVKGRFTISRDNAKNTVYLQMNSLKPEDTAVYYCATDFEGSWIDARGTWYYVWFGYWGQGTQVTVSS”, the “polyreactivity (PSR sort gate)” value was “low polyreactivity”.
In the case of “QVQLVESGGGLVQAGGSLRLSCGASGRIFATNAMGWYRQAPGKERELVATITRSAGRTYYADSVKGRFTISRDNAKNTVYLQMNSLIPEDTAVYYCAASYLDSEPGYREYDYWGQGTQVTVSS”, the “polyreactivity (PSR sort gate)” value was “low polyreactivity”.
For “QVQLVESGGGLVQAGGSLRLSCGASGRIFGYNAMGWYRQARGKERELVAAITTSGGSTYYADSVKGRFTLSRDNEKNTVYFQMNSLKQEDTAVYYCARDSLQVFYPYASDDYWGLGTQVTVSS”, the “polyreactivity (PSR sort gate)” value was “low polyreactivity”.
For “QVQLVESGGGLVQAGGSLRLSCGASGRTFGHYDLGLYRQEPGTEREFVANIRQSTGSTDYADSVKGRFTISRDNAKITVYLQMNSLKPEDTEVYYCASPWYYYVEHRQGSYILDYWGQGTQVTVSS”, the “polyreactivity (PSR sort gate)” value was “low polyreactivity”.
For “QVQLVESGGGLVQAGGSLRLSCGASGRTFRKYAMGWYRQAPGKERELVASITYSGGSTYYADSVKGRFTISRDNAKNTVYLQMNSLKPEDTAVYYCAARLHWNRYPQTLYDYWGLGTQVTVSS”, the “polyreactivity (PSR sort gate)” value was “high polyreactivity”.
With “QVQLVESGGGLVQAGGSLRLSCGASGRTFRRYAIGWYRQAPGKERELVATITSNGGSTYYADSVKGRFTISRDNAKNTVDLQLNSLTPEDTAVYYCARDLTYYRSRYDYWGQGTQVTVSS” the “polyreactivity (PSR sort gate)” value was “high polyreactivity”.
With “QVQLVESGGGLVQAGGSLRLSCGASGRTFYSYAMGWYRQEHGKERELVATITNGDTTNYADSVKGRFTISRDNAKNTVYLQMNSLKQEDTAVYYCAKDISPGYDEYDYWGQGTQVTVSS” the “polyreactivity (PSR sort gate)” value was “low polyreactivity”.
In the case of “QVQLVESGGGLVQAGGSLRLSCGASGSIFRYYTMGWYRQAPGKERELVAAISRSGGSTYYADSVKGRFTISRDNAKNTVYLQMNRLKPEDTAVYYCAARSGYIYEYWGQGTQVTVSS”, the “polyreactivity (PSR sort gate)” value was “high polyreactivity”.
In the case of “QVQLVESGGGLVQAGGSLRLSCGASGSTFIYYVMGWYRQAPGKEREWVASISTGGRTYYADSVKGRFTSSRDNANHPVYVQMHSLKPEETAVDSCAGAIRSFRRPALYYWGQGTQVTVSS”, the “polyreactivity (PSR sort gate)” value was “high polyreactivity”.
For “QVQLVESGGGLVQAGGSLRLSCGASGSTFWYYAMGWYRPAPGKERELVAAISSRGGSTYYADSVKGRFTISRDKAKNTVYFQLNSLKPEDTAVYYCAILGSYGGGQRRKYDSWGQGTQVTVSS”, the “polyreactivity (PSR sort gate)” value was “high polyreactivity”.
